From patent publication US20250276073A1 (Bicycle, published 2025)
Starred links: 1 amine or outer side, 2 acyl side, 3 side chain; linkers in the order of their positions; H or OH if unused. Positions of bridges follow the written chain, without caps; N, C: chain ends. Non-standard residues stand in square brackets, D forms with d. No end group written: not given here. TATB = O=C(C[*:1])N1CN(C(=O)C[*:2])CN(C(=O)C[*:3])C1; Gla = N[C@@H](CC(C(=O)O)C(=O)O)C(=O)O; Hyp = O=C(O)[C@@H]1C[C@@H](O)CN1; Tle = CC(C)(C)[C@H](N)C(=O)O

Target: T1, Recombinant human His-tagged TfR1 (a.a. 89-760) (ACRO Biosystems, CD1-H5243) (human, UniProt P02786 89-760)
T1 construct: range 89-760; Bought protein; Captured and amine-coupled on an NTA chip; also called human TfR1; transferrin receptor 1; not shown: His tag (printed 'Hiss-tagged')
Assay: SPR (Biacore), TfR1 captured/coupled on NTA chip, peptide as analyte

T1 sequence (P02786 89-760 limits assumed): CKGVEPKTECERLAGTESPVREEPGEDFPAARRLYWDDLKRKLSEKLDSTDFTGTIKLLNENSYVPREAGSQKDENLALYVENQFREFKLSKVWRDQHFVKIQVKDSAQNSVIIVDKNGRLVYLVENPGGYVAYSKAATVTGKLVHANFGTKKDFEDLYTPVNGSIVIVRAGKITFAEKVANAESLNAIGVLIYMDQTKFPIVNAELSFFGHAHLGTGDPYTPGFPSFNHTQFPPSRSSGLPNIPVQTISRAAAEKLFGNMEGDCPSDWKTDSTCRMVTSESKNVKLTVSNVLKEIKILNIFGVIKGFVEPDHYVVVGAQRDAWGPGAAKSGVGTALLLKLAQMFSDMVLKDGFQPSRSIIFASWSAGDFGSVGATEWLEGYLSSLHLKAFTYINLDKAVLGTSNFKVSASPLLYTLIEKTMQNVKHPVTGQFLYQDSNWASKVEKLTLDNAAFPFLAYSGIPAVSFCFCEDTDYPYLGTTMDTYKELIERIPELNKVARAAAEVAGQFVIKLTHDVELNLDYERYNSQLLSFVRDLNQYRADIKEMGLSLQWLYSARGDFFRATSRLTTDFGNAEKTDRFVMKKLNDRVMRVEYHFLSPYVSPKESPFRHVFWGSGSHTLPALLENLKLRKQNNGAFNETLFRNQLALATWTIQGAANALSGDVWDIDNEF

B1: BCY23208 (peptide)
peptide: CPXDAYLGCXSYCEPX
modifications: CP[HyP]DAYLGC[tBuGly]SYCEP[DOPA]: HyP at 3, tBuGly at 10, DOPA at 16; N-terminal acetyl; C-terminal CONH2; Cys 1, 9, 13 bonded to TATB scaffold
notes: Bicyclic peptide
  Kd: 0.006 µM

B2: BCY23203 (peptide)
peptide: CPXDAYLGCXSXCEPW
modifications: CP[HyP]DAYLGC[tBuGly]S[hTyr]CEPW: HyP at 3, tBuGly at 10, hTyr at 12; N-terminal acetyl; C-terminal CONH2; Cys 1, 9, 13 bonded to TATB scaffold
notes: Bicyclic peptide
  Kd: 0.283 µM

B3: BCY23209 (peptide)
peptide: CPXDAYLGCXSYCEPX
modifications: CP[HyP]DAYLGC[tBuGly]SYCEP[pCaPhe]: HyP at 3, tBuGly at 10, pCaPhe at 16; N-terminal acetyl; C-terminal CONH2; Cys 1, 9, 13 bonded to TATB scaffold
notes: Bicyclic peptide
  Kd: 0.0056 µM

B4: BCY23202 (peptide)
peptide: CPXDAYLGCXSXCEPW
modifications: CP[HyP]DAYLGC[tBuGly]S[pCoPhe]CEPW: HyP at 3, tBuGly at 10, pCoPhe at 12; N-terminal acetyl; C-terminal CONH2; Cys 1, 9, 13 bonded to TATB scaffold
notes: Bicyclic peptide
  Kd: 0.023 µM

B5: BCY23231 (peptide)
peptide: CPXDAYLGCXSYCXPW
modifications: CP[HyP]DAYLGC[tBuGly]SYC[Gla]PW: HyP at 3, tBuGly at 10, Gla at 14; N-terminal acetyl; C-terminal CONH2; Cys 1, 9, 13 bonded to TATB scaffold
notes: Bicyclic peptide
  Kd: 0.025 µM

B6: BCY23184 (peptide)
peptide: CPXDAYLGCXSYCEPW
modifications: CP[Cis-HyP]DAYLGC[tBuGly]SYCEPW: Cis-HyP at 3, tBuGly at 10; N-terminal acetyl; C-terminal CONH2; Cys 1, 9, 13 bonded to TATB scaffold
notes: Bicyclic peptide
  Kd: 0.013 µM

B7: BCY23207 (peptide)
peptide: CPXDAYLGCXSYCEPY
modifications: CP[HyP]DAYLGC[tBuGly]SYCEPY: HyP at 3, tBuGly at 10; N-terminal acetyl; C-terminal CONH2; Cys 1, 9, 13 bonded to TATB scaffold
notes: Bicyclic peptide
  Kd: 0.0077 µM

B8: BCY23216 (peptide)
peptide: Ac-CP[Hyp]EAYLGC[Tle]SYCEPW-NH2
modifications: linker 1-9-13 via TATB
SMILES: CC(=O)N[C@H]1CSCC(=O)N2CN3CN(C2)C(=O)CSC[C@@H](C(=O)N[C@@H](CCC(=O)O)C(=O)N2CCC[C@H]2C(=O)N[C@@H](Cc2c[nH]c4ccccc24)C(N)=O)NC(=O)[C@H](Cc2ccc(O)cc2)NC(=O)[C@H](CO)NC(=O)[C@H](C(C)(C)C)NC(=O)[C@H](CSCC3=O)NC(=O)CNC(=O)[C@H](CC(C)C)NC(=O)[C@H](Cc2ccc(O)cc2)NC(=O)[C@H](C)NC(=O)[C@H](CCC(=O)O)NC(=O)[C@@H]2C[C@@H](O)CN2C(=O)[C@@H]2CCCN2C1=O
notes: Bicyclic peptide
  Kd: 0.158 µM

B9: BCY23220 (peptide)
peptide: Ac-CP[Hyp]DAYDGC[Tle]SYCEPW-NH2
modifications: linker 1-9-13 via TATB
SMILES: CC(=O)N[C@H]1CSCC(=O)N2CN3CN(C2)C(=O)CSC[C@@H](C(=O)N[C@@H](CCC(=O)O)C(=O)N2CCC[C@H]2C(=O)N[C@@H](Cc2c[nH]c4ccccc24)C(N)=O)NC(=O)[C@H](Cc2ccc(O)cc2)NC(=O)[C@H](CO)NC(=O)[C@H](C(C)(C)C)NC(=O)[C@H](CSCC3=O)NC(=O)CNC(=O)[C@H](CC(=O)O)NC(=O)[C@H](Cc2ccc(O)cc2)NC(=O)[C@H](C)NC(=O)[C@H](CC(=O)O)NC(=O)[C@@H]2C[C@@H](O)CN2C(=O)[C@@H]2CCCN2C1=O
notes: Bicyclic peptide
  Kd: 0.072 µM

B10: BCY23223 (peptide)
peptide: CP[Hyp]DAYQGC[Tle]SYCEPW-NH2
modifications: linker 1-9-13 via TATB; not fully specified (N-terminus); printed as CP[HyP]DAYQGC[tBuGly]SYCEPW
notes: Bicyclic peptide
  Kd: 0.05 µM

B11: BCY23221 (peptide)
peptide: Ac-CP[Hyp]DAYEGC[Tle]SYCEPW-NH2
modifications: linker 1-9-13 via TATB
SMILES: CC(=O)N[C@H]1CSCC(=O)N2CN3CN(C2)C(=O)CSC[C@@H](C(=O)N[C@@H](CCC(=O)O)C(=O)N2CCC[C@H]2C(=O)N[C@@H](Cc2c[nH]c4ccccc24)C(N)=O)NC(=O)[C@H](Cc2ccc(O)cc2)NC(=O)[C@H](CO)NC(=O)[C@H](C(C)(C)C)NC(=O)[C@H](CSCC3=O)NC(=O)CNC(=O)[C@H](CCC(=O)O)NC(=O)[C@H](Cc2ccc(O)cc2)NC(=O)[C@H](C)NC(=O)[C@H](CC(=O)O)NC(=O)[C@@H]2C[C@@H](O)CN2C(=O)[C@@H]2CCCN2C1=O
notes: Bicyclic peptide
  Kd: 0.12 µM

B12: BCY23218 (peptide)
peptide: Ac-CP[Hyp]DAYSGC[Tle]SYCEPW-NH2
modifications: linker 1-9-13 via TATB
SMILES: CC(=O)N[C@H]1CSCC(=O)N2CN3CN(C2)C(=O)CSC[C@@H](C(=O)N[C@@H](CCC(=O)O)C(=O)N2CCC[C@H]2C(=O)N[C@@H](Cc2c[nH]c4ccccc24)C(N)=O)NC(=O)[C@H](Cc2ccc(O)cc2)NC(=O)[C@H](CO)NC(=O)[C@H](C(C)(C)C)NC(=O)[C@H](CSCC3=O)NC(=O)CNC(=O)[C@H](CO)NC(=O)[C@H](Cc2ccc(O)cc2)NC(=O)[C@H](C)NC(=O)[C@H](CC(=O)O)NC(=O)[C@@H]2C[C@@H](O)CN2C(=O)[C@@H]2CCCN2C1=O
notes: Bicyclic peptide
  Kd: 0.055 µM

B13: BCY23230 (peptide)
peptide: CPXDAYLGCXSYCDPW
modifications: CP[HyP]DAYLGC[tBuGly]SYCDPW: HyP at 3, tBuGly at 10; N-terminal acetyl; C-terminal CONH2; Cys 1, 9, 13 bonded to TATB scaffold
notes: Bicyclic peptide
  Kd: 0.015 µM

B14: BCY23222 (peptide)
peptide: Ac-CP[Hyp]DAYNGC[Tle]SYCEPW-NH2
modifications: linker 1-9-13 via TATB
SMILES: CC(=O)N[C@H]1CSCC(=O)N2CN3CN(C2)C(=O)CSC[C@@H](C(=O)N[C@@H](CCC(=O)O)C(=O)N2CCC[C@H]2C(=O)N[C@@H](Cc2c[nH]c4ccccc24)C(N)=O)NC(=O)[C@H](Cc2ccc(O)cc2)NC(=O)[C@H](CO)NC(=O)[C@H](C(C)(C)C)NC(=O)[C@H](CSCC3=O)NC(=O)CNC(=O)[C@H](CC(N)=O)NC(=O)[C@H](Cc2ccc(O)cc2)NC(=O)[C@H](C)NC(=O)[C@H](CC(=O)O)NC(=O)[C@@H]2C[C@@H](O)CN2C(=O)[C@@H]2CCCN2C1=O
notes: Bicyclic peptide
  Kd: 0.058 µM

B15: BCY23219 (peptide)
peptide: Ac-CP[Hyp]DAYTGC[Tle]SYCEPW-NH2
modifications: linker 1-9-13 via TATB
SMILES: CC(=O)N[C@H]1CSCC(=O)N2CN3CN(C2)C(=O)CSC[C@@H](C(=O)N[C@@H](CCC(=O)O)C(=O)N2CCC[C@H]2C(=O)N[C@@H](Cc2c[nH]c4ccccc24)C(N)=O)NC(=O)[C@H](Cc2ccc(O)cc2)NC(=O)[C@H](CO)NC(=O)[C@H](C(C)(C)C)NC(=O)[C@H](CSCC3=O)NC(=O)CNC(=O)[C@H]([C@@H](C)O)NC(=O)[C@H](Cc2ccc(O)cc2)NC(=O)[C@H](C)NC(=O)[C@H](CC(=O)O)NC(=O)[C@@H]2C[C@@H](O)CN2C(=O)[C@@H]2CCCN2C1=O
notes: Bicyclic peptide
  Kd: 0.051 µM

B16: BCY23224 (peptide)
peptide: CPXDAYLGCXXYCEPW
modifications: CP[HyP]DAYLGC[tBuGly][HSer]YCEPW: HyP at 3, tBuGly at 10, HSer at 11; N-terminal acetyl; C-terminal CONH2; Cys 1, 9, 13 bonded to TATB scaffold
notes: Bicyclic peptide
  Kd: 1.14 µM

B17: BCY23217 (peptide)
peptide: Ac-CP[Hyp][Gla]AYLGC[Tle]SYCEPW-NH2
modifications: linker 1-9-13 via TATB
SMILES: CC(=O)N[C@H]1CSCC(=O)N2CN3CN(C2)C(=O)CSC[C@@H](C(=O)N[C@@H](CCC(=O)O)C(=O)N2CCC[C@H]2C(=O)N[C@@H](Cc2c[nH]c4ccccc24)C(N)=O)NC(=O)[C@H](Cc2ccc(O)cc2)NC(=O)[C@H](CO)NC(=O)[C@H](C(C)(C)C)NC(=O)[C@H](CSCC3=O)NC(=O)CNC(=O)[C@H](CC(C)C)NC(=O)[C@H](Cc2ccc(O)cc2)NC(=O)[C@H](C)NC(=O)[C@H](CC(C(=O)O)C(=O)O)NC(=O)[C@@H]2C[C@@H](O)CN2C(=O)[C@@H]2CCCN2C1=O
notes: Bicyclic peptide
  Kd: 0.117 µM

B18: BCY23204 (peptide)
peptide: CPXDAYLGCXSYCEXW
modifications: CP[HyP]DAYLGC[tBuGly]SYCE[HyP]W: HyP at 3 and 15, tBuGly at 10; N-terminal acetyl; C-terminal CONH2; Cys 1, 9, 13 bonded to TATB scaffold
notes: Bicyclic peptide
  Kd: 0.009 µM

B19: BCY23211 (peptide)
peptide: CPXDAYLGCXSYCEPX
modifications: CP[HyP]DAYLGC[tBuGly]SYCEP[hTyr]: HyP at 3, tBuGly at 10, hTyr at 16; N-terminal acetyl; C-terminal CONH2; Cys 1, 9, 13 bonded to TATB scaffold
notes: Bicyclic peptide
  Kd: 0.0077 µM

B20: BCY23210 (peptide)
peptide: CPXDAYLGCXSYCEPX
modifications: CP[HyP]DAYLGC[tBuGly]SYCEP[pCoPhe]: HyP at 3, tBuGly at 10, pCoPhe at 16; N-terminal acetyl; C-terminal CONH2; Cys 1, 9, 13 bonded to TATB scaffold
notes: Bicyclic peptide
  Kd: 0.0086 µM

B21: BCY23180 (peptide)
peptide: CXXDAYLGCXSYCEPW
modifications: not fully specified; C[HyP][HyP]DAYLGC[tBuGly]SYCEPW: HyP at 2 and 3, tBuGly at 10; N-terminal acetyl; C-terminal CONH2; Cys 1, 9, 13 bonded to TATB scaffold
notes: Bicyclic peptide
  Kd: 0.05 µM

B22: BCY23182 (peptide)
peptide: CXXDAYLGCXSYCEPW
modifications: C[Cis-HyP][HyP]DAYLGC[tBuGly]SYCEPW: Cis-HyP at 2, HyP at 3, tBuGly at 10; N-terminal acetyl; C-terminal CONH2; Cys 1, 9, 13 bonded to TATB scaffold
notes: Bicyclic peptide
  Kd: 0.022 µM

B23: BCY23205 (peptide)
peptide: CPXDAYLGCXSYCEXW
modifications: CP[HyP]DAYLGC[tBuGly]SYCE[Oxa]W: HyP at 3, tBuGly at 10, Oxa at 15; N-terminal acetyl; C-terminal CONH2; Cys 1, 9, 13 bonded to TATB scaffold
notes: Bicyclic peptide
  Kd: 0.011 µM
